Measurements as given in patent US20220054583A1 (ANBITION S R L, published 2022).
Square brackets hold non-standard residues; d marks the D form. Ends that are not written are not given here. * marks the point of attachment. Met(O2) = CS(=O)(=O)CC[C@H](N)C(=O)O; Cha = N[C@@H](CC1CCCCC1)C(=O)O; Bn = c1ccc(C*)cc1

T1: human recombinant receptor VEGFR-1, seven extracellular domains fused to the Fc domain of human IgG (R&D Systems, cat No 321-FL) (human), P17948
T1 chain: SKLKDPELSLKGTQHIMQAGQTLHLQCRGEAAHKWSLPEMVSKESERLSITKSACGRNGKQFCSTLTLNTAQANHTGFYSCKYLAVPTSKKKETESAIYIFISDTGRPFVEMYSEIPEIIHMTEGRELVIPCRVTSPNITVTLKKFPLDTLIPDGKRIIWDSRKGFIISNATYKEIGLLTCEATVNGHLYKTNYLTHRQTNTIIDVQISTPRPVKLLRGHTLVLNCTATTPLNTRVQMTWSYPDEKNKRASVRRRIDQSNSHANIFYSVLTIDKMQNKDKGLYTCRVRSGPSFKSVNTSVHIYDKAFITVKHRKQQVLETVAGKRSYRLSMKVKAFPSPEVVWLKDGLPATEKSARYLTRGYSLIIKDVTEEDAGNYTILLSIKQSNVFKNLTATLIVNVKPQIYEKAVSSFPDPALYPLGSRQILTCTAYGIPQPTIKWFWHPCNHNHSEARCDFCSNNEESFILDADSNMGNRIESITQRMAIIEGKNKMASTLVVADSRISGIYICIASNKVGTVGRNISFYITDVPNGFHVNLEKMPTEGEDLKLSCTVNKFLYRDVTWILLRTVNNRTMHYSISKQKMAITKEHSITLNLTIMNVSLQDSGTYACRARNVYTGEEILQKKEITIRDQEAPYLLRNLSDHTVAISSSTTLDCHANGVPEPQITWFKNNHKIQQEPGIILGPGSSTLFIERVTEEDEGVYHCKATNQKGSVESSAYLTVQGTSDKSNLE


Columns and labels:
[1] = target: T1, human recombinant receptor VEGFR-1, …; experiment: competition ELISA, residual binding of PlGF (5 ng/ml) to coated VEGFR-1-Fc, peptide 25000 nM
[2] = target: T1, human recombinant receptor VEGFR-1, …; experiment: competition ELISA, residual binding of PlGF (5 ng/ml) to coated VEGFR-1-Fc, peptide 1560 nM
[3] = target: T1, human recombinant receptor VEGFR-1, …; experiment: competition ELISA, residual binding of VEGF-A (5 ng/ml) to coated VEGFR-1-Fc, peptide 50000 nM
[4] = target: T1, human recombinant receptor VEGFR-1, …; experiment: competition ELISA, VEGF-A binding to coated VEGFR-1-Fc
[5] = target: T1, human recombinant receptor VEGFR-1, …; experiment: competition ELISA, residual binding of VEGF-A (5 ng/ml) to coated VEGFR-1-Fc, peptide 12500 nM
[6] = target: T1, human recombinant receptor VEGFR-1, …; experiment: competition ELISA, residual binding of PlGF (5 ng/ml) to coated VEGFR-1-Fc, peptide 3125 nM
[7] = target: T1, human recombinant receptor VEGFR-1, …; experiment: competition ELISA, residual binding of VEGF-A (5 ng/ml) to coated VEGFR-1-Fc, peptide 1560 nM
[8] = target: T1, human recombinant receptor VEGFR-1, …; experiment: competition ELISA, residual binding of PlGF (5 ng/ml) to coated VEGFR-1-Fc, peptide 780 nM
[9] = target: T1, human recombinant receptor VEGFR-1, …; experiment: competition ELISA, residual binding of PlGF (5 ng/ml) to coated VEGFR-1-Fc, peptide 50000 nM
[10] = target: T1, human recombinant receptor VEGFR-1, …; experiment: competition ELISA, PlGF binding to coated VEGFR-1-Fc
[11] = target: T1, human recombinant receptor VEGFR-1, …; experiment: competition ELISA, residual binding of VEGF-A (5 ng/ml) to coated VEGFR-1-Fc, peptide 25000 nM
[12] = target: T1, human recombinant receptor VEGFR-1, …; experiment: competition ELISA, residual binding of VEGF-A (5 ng/ml) to coated VEGFR-1-Fc, peptide 6250 nM
[13] = target: T1, human recombinant receptor VEGFR-1, …; experiment: competition ELISA, residual binding of VEGF-A (5 ng/ml) to coated VEGFR-1-Fc, peptide 780 nM
[14] = target: T1, human recombinant receptor VEGFR-1, …; experiment: competition ELISA, residual binding of PlGF (5 ng/ml) to coated VEGFR-1-Fc, peptide 12500 nM
[15] = target: T1, human recombinant receptor VEGFR-1, …; experiment: competition ELISA, residual binding of PlGF (5 ng/ml) to coated VEGFR-1-Fc, peptide 6250 nM
[16] = target: T1, human recombinant receptor VEGFR-1, …; experiment: competition ELISA, residual binding of VEGF-A (5 ng/ml) to coated VEGFR-1-Fc, peptide 3125 nM
[17] = target: T1, human recombinant receptor VEGFR-1, …; experiment: competition ELISA, PlGF or VEGF-A binding to coated VEGFR-1-Fc; reference iVR1
[18] = target: T2, human recombinant receptor VEGFR-1, seven extracellular domains fused to the Fc domain of human IgG (R&D … (human, UniProt P17948 27-758)); experiment: competition ELISA, VEGF-A binding to coated VEGFR-1-Fc
T2 construct: Bought reagent; also called Flt-1; not shown: Fc domain of human IgG

binding % [1]	binding % [2]	binding % [3]	IC50 [4]	binding % [5]	binding % [6]	binding % [7]	binding % [8]	binding % [9]	IC50 [10]	binding % [11]	binding % [12]	binding % [13]	binding % [14]	binding % [15]	binding % [16]	fold inhibitory capacity against iVR1 [17]	IC50 [18]	Binder
36%	101%	8.6%	10000 nM	37%	96.1%	96.2%	99.4%	26.3%	10000 nM	21.4%	66%	98.4%	44.6%	68.5%	93.9%	–	–	iVR1, tetrameric peptide of formula (IIc) (also: branched: four ECX arms on two Z1 Lys, both on Z2 Lys) peptide: H-[dE]-Cys(Bn)-[Cha] chain 1: Lys chain 2: Lys-Gly-NH2
10.3%	35.5%	6.5%	1000 nM	9.81%	25.5%	43.7%	83.8%	9.18%	< 1000 nM	7.99%	12.5%	92.3%	12.6%	14.1%	21.7%	10 fold	–	iVR1-Cys, tetrameric peptide of formula (IIb) (also: branched: four ECX arms on two Z1 Lys, both on Z2 Lys) peptide: H-[dE]-Cys(Bn)-[Cha] chain 1: Lys chain 2: Lys-[dC]-NH2
–	–	–	–	–	–	–	–	–	–	–	–	–	–	–	–	–	2430 nM	tetrameric peptide of formula (II) with Y2 = D-serine (also: tetrameric: four tripeptide arms on two Z1 lysines, carried on Z2 lysine, Variant of iVR1-Cys with another Y2; only Y2 is printed) peptide: [dE]-Cys(Bn)-[Cha] chain 1: Lys chain 2: Lys-[dS]
–	–	–	–	–	–	–	–	–	–	–	–	–	–	–	–	–	2030 nM	tetrameric peptide of formula (II) with Y2 = L-cysteine (also: tetrameric: four tripeptide arms on two Z1 lysines, carried on Z2 lysine, Variant of iVR1-Cys with another Y2) peptide: [dE]-Cys(Bn)-[Cha] chain 1: Lys chain 2: Lys-Cys
–	–	–	–	–	–	–	–	–	–	–	–	–	–	–	–	–	4620 nM	tetrameric peptide of formula (II) with Y2 = L-methionine sulfone (also: tetrameric: four tripeptide arms on two Z1 lysines, carried on Z2 lysine, Variant of iVR1-Cys with another Y2; only Y2 is printed) peptide: [dE]-Cys(Bn)-[Cha] chain 1: Lys chain 2: Lys-[Met(O2)]
